Measured values: patent publication US12583888B2, “Bi-specific extracellular matrix binding peptides and methods of use thereof” (University of Tartu, priority 2019, dated 2026)
No end group written: not given here.

Assays:
fibronectin EDB-domain = molecular target: T1, fibronectin EDB-domain (Homo sapiens, UniProt P02751); experiment: PL3 phage binding to fibronectin EDB-domain
T1 construct: made in house; host or cells: E. coli BL21 Rosetta 2 (DE3) pLysS
Source text: The recovered phage was tittered and amplified for a subsequent round of selection. […] RPARPAR phage on NRP-1-coated beads was used as a positive control (Teesalu et al., 2009). Phage clones displaying heptaglycine peptide (GGGGGGG, G7 (SEQ ID NO:20)) or insert less phage clones were used as negative controls.

P13 tumor = conditions: i.v. equimolar mix, 2 h circulation
Source text: (§1) In vivo play-off was used to evaluate systemic homing of peptide phage to xenograft tumor models. The in vitro selected candidate TNC-C binding peptides, phages displaying published tumor homing peptides, and control peptides were amplified and purified by precipitation with PEG-8000 (Sigma-Aldrich, St. Louis, MO, USA), followed by CsCl2 gradient ultracentrifugation and dialysis. The amplified phage peptides were pooled in equimolar quantities, and injected intravenously (final 1×10^10 pfu in 200 μl PBS) in tumor-bearing mice for two hour circulation, after which mice were anesthetized with 2.5% avertin and intracardially perfused with DMEM intracardially. The tumors and organs were collected in lysogeny broth (LB)+1% NP40, and the tissues were homogenized using a hand-held homogenizer for phage peptide rescue. Phages in the tissue lysates were amplified in E. coli, purified by precipitation with PEG-8000 and DNA was extracted using a DNA extraction kit (High Pure PCR Template Preparation Kit; Roche, Basel, Switzerland). Next-generation sequencing of phage genomic DNA evaluated the representation of each phage in input mixture, in tumor and control organs with Ion Torrent system (Thermo Fisher Scientific, Waltham, MA, USA). The next generation deep sequencing of phage library was done using Ion Torrent according to the manufacturer's protocol with slight modification. The FASTQ data from Ion Torrent was processed by a custom python script that identified the barcodes, constant flanking residues, and extracted the reads of the correct length.

P3 stem cell-like tumor = conditions: i.v. equimolar mix, 2 h circulation
Source text: as §1

[1] = system: PC3 prostate carcinoma xenografts; conditions: i.v. equimolar mix, 2 h circulation
Source text: as §1

U87-MG glioblastoma = conditions: i.v. equimolar mix, 2 h circulation
Source text: as §1

WT-GBM tumor = conditions: i.v. equimolar mix, 2 h circulation
Source text: as §1

normal brain = conditions: i.v. equimolar mix, 2 h circulation
Source text: as §1

M21 cells = experiment: Cell binding and internalization of CF555-labeled AgNPs; type: cell-based; conditions: NRP-1-negative M21, 1 h incubation
Procedure: (§2) U87-MG, PPC1, and M21 cells cultured on glass coverslips were incubated with CF555-labeled AgNPs at 37° C. for 1 hour, followed by washing with medium to remove background AgNPs. Etching solution freshly diluted from 0.2 M stock solutions of Na2S2O3 and K3Fe(CN)6 to 10 mM working concentration in PBS was applied to cells for 3 minutes, followed by PBS washes. The cells on coverslips were fixed with −20° C. methanol for 1 minute. The cell membrane was visualized by staining with Alexa Fluor 488-labeled wheat germ agglutinin (WGA) at 1:1000 at RT for 1 h. […] Fluoromount-G (Electron Microscopy Sciences) medium was used to mount the coverslips on microscope slides for confocal imaging.

U87-MG cells = experiment: as above; type: cell-based, human; conditions: NRP-1-positive U87-MG, 1 h incubation
Procedure: as §2

PPC1 cells = experiment: as above; type: cell-based; conditions: NRP-1-positive PPC1, 1 h incubation
Procedure: as §2

U87-MG xenograft = experiment: In vivo fluorescence imaging with the IVIS Spectrum system; parameters: species or system mice
Procedure: Live imaging of PL3 peptide tumor homing was assessed by in vivo fluorescence imaging with the IVIS Spectrum imaging system (PerkinElmer, Waltham, MA) in U87-MG xenograft mice model (Male, 18-20 weeks of age). AgNPs with CF647 dye-labeled neutravidin coating was functionalized with biotinylated PL3 peptide (AgNP-PL3) or control biotin (AgNP). AgNP PL3 and AgNP particles were injected intravenously into the mice. For assessment of tumor PL3 targeted delivery and homing by IVIS, mice were placed in a dark imaging chamber under isoflurane anesthesia, and imaged with the following parameters. Specific excitation filter, 650 nm; emission filter, 665 nm; auto exposure time; binning, medium; field of view, 12; f/stop, 2; open filter. The images were captured at pre-injection (0 hours) and five-hour post-injection. The signal was expressed in total Radiant Efficiency [p/s]/[μW/cm^2]. The regions of interest (ROIs) were drawn covering the whole tumor in each mouse after tissue background correction, and radiant efficiency signal was quantitated. An automated spectral unmixing algorithm was used, images were analyzed by using Living Image 4.4 software (Caliper Life Sciences, Hopkinton, MA). Three animals per experimental group were analyzed. For the receptor blocking studies, PL3-AgNP injection was preceded by systemic pre-injection of blocking TNC-C and/or NRP1 antibodies (30 μg/mouse) 15 minutes prior to injection of the AgNPs.

T1 sequence (P02751 with tags, fused parts or gaps): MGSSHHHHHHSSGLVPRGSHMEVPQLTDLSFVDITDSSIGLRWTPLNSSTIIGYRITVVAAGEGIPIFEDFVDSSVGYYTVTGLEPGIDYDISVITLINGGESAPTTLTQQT

Row | Substance | binding to fibronectin EDB-domain (fibronectin EDB-domain) | Representation of phage in tumors (fold G7 control phage), P13 (P13 tumor) | Representation of phage in tumors (fold G7 control phage), P3 SCL (P3 stem cell-like tumor) | Representation of phage in tumors (fold G7 control phage), PC3 [1] | Representation of phage in tumors (fold G7 control phage), U87-MG (U87-MG glioblastoma) | Representation of phage in tumors (fold G7 control phage), WT-GBM (WT-GBM tumor) | Representation of phage in control brain tissue (fold G7 control phage), Norm. brain (normal brain) | cellular uptake (M21 cells) | cellular uptake (U87-MG cells) | cellular uptake (PPC1 cells) | accumulation in glioma lesions more than control non-peptide CF647-AgNP (U87-MG xenograft; 5 hours, i.v.) | tumor homing on coadministration with blocking antibodies (U87-MG xenograft; cocktail of both antibodies) | tumor homing on coadministration with blocking antibodies (U87-MG xenograft; rabbit polyclonal antibodies against either TNC-C or NRP-1)
1 | AGRGRLVR [PL3] | did not bind | 4.7 fold | 2.1 fold | 3.9 fold | 2.1 fold | 24.1 fold | 0.4 fold | low background-like uptake |  |  |  |  | 
2 | PL3-AgNPs: dye-labeled neutravidin-coated silver nanoparticles functionalized with biotinylated PL3 peptide (AGRGRLVR; also: biotinylated, bound to dye-labeled neutravidin-coated silver nanoparticles) |  |  |  |  |  |  |  |  | robustly endocytosed with perinuclear accumulation | robustly endocytosed with perinuclear accumulation | ~10 fold | almost completely inhibited the tumor accumulation | decrease in tumor homing
